Paper PMC9352680, “A comprehensive thermodynamic model for RNA binding by the Saccharomyces cerevisiae Pumilio protein PUF4”

T1: PUF4 RNA-binding domain (Saccharomyces cerevisiae, UniProt P25339 537-888)
T1 sequence: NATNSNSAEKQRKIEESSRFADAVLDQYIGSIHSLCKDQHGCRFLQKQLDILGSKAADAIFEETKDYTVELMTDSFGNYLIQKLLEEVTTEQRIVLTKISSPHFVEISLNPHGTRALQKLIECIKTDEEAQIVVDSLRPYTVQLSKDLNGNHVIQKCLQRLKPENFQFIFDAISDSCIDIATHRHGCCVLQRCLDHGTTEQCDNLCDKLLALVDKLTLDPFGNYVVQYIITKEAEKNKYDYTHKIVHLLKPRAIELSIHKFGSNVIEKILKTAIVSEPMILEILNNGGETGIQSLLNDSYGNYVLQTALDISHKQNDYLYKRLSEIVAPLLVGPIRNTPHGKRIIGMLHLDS


Molecular target: T1, PUF4 RNA-binding domain
Experiment: Mg; RNA-MaP; 20 mM Na-HEPES pH 7.4, 30 mM KOAc, 0.75 mM MgCl2, 0.1% Tween-20, 5% glycerol, 0.1 mg/mL BSA, 2 mM DTT; 25 C; 0.0125-409.6 nM protein
Settings: tags: N-His6-TEV cleaved; C-SNAP kept, Cy3B-labelled; label: tethered on chip by stalled RNA polymerase

Binder | Kd [nM]
UCUCUUUGUAUUAGCUCUCUU (ssRNA) [Ic_S1_P4E.1_K4.1_C4.1_H4.1_A4.1_[A6T]_[T7A]_F4.1_[T8G]_[A9C]_T4.1] | 530
UCUCUUUGUAUUCCCUCUCUU (ssRNA) [Ic_S1_P4E.1_K4.1_C4.1_H4.1_A4.1_[A6T]_[T7C]_F4.1_[T8C]_[A9C]_T4.1] | 505
UCUCUUUGUAUAACCUCUCUU (ssRNA) [Ic_S1_P4E.1_K4.1_C4.1_H4.1_A4.1_[T7A]_F4.1_[T8C]_[A9C]_T4.1] | 62.8
UCUCUUUGUAUUUCCUCUCUU (ssRNA) [Ic_S1_P4E.1_K4.1_C4.1_H4.1_A4.1_[A6T]_F4.1_[T8C]_[A9C]_T4.1] | 313
UCUCUUUGUAUACCGUCUCUU (ssRNA) [Ic_S1_P4E.1_K4.1_C4.1_H4.1_A4.1_[T7C]_F4.1_[T8C]_[A9G]_T4.1] | 542
UCUCUUUGUAUUUAUUCUCUU (ssRNA) [Ic_S1_P4E.1_K4.1_C4.1_H4.1_A4.1_[A6T]_F4.1_[T8A]_[A9T]_T4.1] | 31.8
UCUCUUUGUAUACACUCUCUU (ssRNA) [Ic_S1_P4E.1_K4.1_C4.1_H4.1_A4.1_[T7C]_F4.1_[T8A]_[A9C]_T4.1] | 118
UCUCUUUGUAUUACCUCUCUU (ssRNA) [Ic_S1_P4E.1_K4.1_C4.1_H4.1_A4.1_[A6T]_[T7A]_F4.1_[T8C]_[A9C]_T4.1] | 511
UCUCUUUGUAUUUCGUCUCUU (ssRNA) [Ic_S1_P4E.1_K4.1_C4.1_H4.1_A4.1_[A6T]_F4.1_[T8C]_[A9G]_T4.1] | 462
UCUCUUUGUAUAACUUCUCUU (ssRNA) [Ic_S1_P4E.1_K4.1_C4.1_H4.1_A4.1_[T7A]_F4.1_[T8C]_[A9T]_T4.1] | 44.2
UCUCUUUGUAUUCGAUCUCUU (ssRNA) [Ic_S1_P4E.1_K4.1_C4.1_H4.1_A4.1_[A6T]_[T7C]_F4.1_[T8G]_T4.1] | 753
UCUCUUUGUAUUUACUCUCUU (ssRNA) [Ic_S1_P4E.1_K4.1_C4.1_H4.1_A4.1_[A6T]_F4.1_[T8A]_[A9C]_T4.1] | 74.9
UCUCUUUGUAAAUGUCUCUU (ssRNA) [Ic_S1_P3E.1_K3.1_C3.1_H3.1_A3.1_[T5A]_F3.1_[A8G]_T3.1] | 97.5
UCUCUUUGUAUUACGUCUCUU (ssRNA) [Ic_S1_P4E.1_K4.1_C4.1_H4.1_A4.1_[A6T]_[T7A]_F4.1_[T8C]_[A9G]_T4.1] | 844
UCUCUUUGUAUUCAGUCUCUU (ssRNA) [Ic_S1_P4E.1_K4.1_C4.1_H4.1_A4.1_[A6T]_[T7C]_F4.1_[T8A]_[A9G]_T4.1] | 642
UCUCUUUGUAUAGCGUCUCUU (ssRNA) [Ic_S1_P4E.1_K4.1_C4.1_H4.1_A4.1_[T7G]_F4.1_[T8C]_[A9G]_T4.1] | 283
UCUCUUUGUAUAGCCUCUCUU (ssRNA) [Ic_S1_P4E.1_K4.1_C4.1_H4.1_A4.1_[T7G]_F4.1_[T8C]_[A9C]_T4.1] | 108
UCUCUUUGUACAGCCAUCUCUU (ssRNA) [Ic_S1_P5E.1_K5.1_C5.1_H5.1_A5.1_[T5C]_[T6A]_[A7G]_F5.1_[T8C]_[T9C]_T5.1] | 316
UCUCUUUGUAUUCAUUCUCUU (ssRNA) [Ic_S1_P4E.1_K4.1_C4.1_H4.1_A4.1_[A6T]_[T7C]_F4.1_[T8A]_[A9T]_T4.1] | 141
UCUCUUUGUAUACAGUCUCUU (ssRNA) [Ic_S1_P4E.1_K4.1_C4.1_H4.1_A4.1_[T7C]_F4.1_[T8A]_[A9G]_T4.1] | 95.6
UCUCUUUGUAUACCCUCUCUU (ssRNA) [Ic_S1_P4E.1_K4.1_C4.1_H4.1_A4.1_[T7C]_F4.1_[T8C]_[A9C]_T4.1] | 93.4
UCUCUUUGUAUUAAUUCUCUU (ssRNA) [Ic_S1_P4E.1_K4.1_C4.1_H4.1_A4.1_[A6T]_[T7A]_F4.1_[T8A]_[A9T]_T4.1] | 86.5
UCUCUUUGUAUUAAAUCUCUU (ssRNA) [Ic_S1_P4E.1_K4.1_C4.1_H4.1_A4.1_[A6T]_[T7A]_F4.1_[T8A]_T4.1] | 95.4
UCUCUUUGUAUUUGCUCUCUU (ssRNA) [Ic_S1_P4E.1_K4.1_C4.1_H4.1_A4.1_[A6T]_F4.1_[T8G]_[A9C]_T4.1] | 350
UCUCUUUGUACCAACCUCUCUU (ssRNA) [Ic_S1_P5E.1_K5.1_C5.1_H5.1_A5.1_[T5C]_[T6C]_F5.1_[T8A]_[T9C]_[A10C]_T5.1] | 556
UCUCUUUGUAUAAAUUCUCUU (ssRNA) [Ic_S1_P4E.1_K4.1_C4.1_H4.1_A4.1_[T7A]_F4.1_[T8A]_[A9T]_T4.1] | 67.2

Binder | Kd [nM]
UCUCUUUGUAUUCUCUCUCUU (ssRNA) [Ic_S1_P4E.1_K4.1_C4.1_H4.1_A4.1_[A6T]_[T7C]_F4.1_[A9C]_T4.1] | 38.5
UCUCUUUGUAUUUGGUCUCUU (ssRNA) [Ic_S1_P4E.1_K4.1_C4.1_H4.1_A4.1_[A6T]_F4.1_[T8G]_[A9G]_T4.1] | 630
UCUCUUUGUAUUAUUUCUCUU (ssRNA) [Ic_S1_P4E.1_K4.1_C4.1_H4.1_A4.1_[A6T]_[T7A]_F4.1_[A9T]_T4.1] | 12.6
UCUCUUUGUAUUAUCUCUCUU (ssRNA) [Ic_S1_P4E.1_K4.1_C4.1_H4.1_A4.1_[A6T]_[T7A]_F4.1_[A9C]_T4.1] | 19.3
UCUCUUUGUAUAUCGAUCUCUU (ssRNA) [Ic_S1_P5E.1_K5.1_C5.1_H5.1_A5.1_[T6A]_[A7T]_F5.1_[T8C]_[T9G]_T5.1] | 38.9
UCUCUUUGUAUACAUUCUCUU (ssRNA) [Ic_S1_P4E.1_K4.1_C4.1_H4.1_A4.1_[T7C]_F4.1_[T8A]_[A9T]_T4.1] | 48.5
UCUCUUUGUAUUACUUCUCUU (ssRNA) [Ic_S1_P4E.1_K4.1_C4.1_H4.1_A4.1_[A6T]_[T7A]_F4.1_[T8C]_[A9T]_T4.1] | 49.6
UCUCUUUGUAUACGGUCUCUU (ssRNA) [Ic_S1_P4E.1_K4.1_C4.1_H4.1_A4.1_[T7C]_F4.1_[T8G]_[A9G]_T4.1] | 683
UCUCUUUGUAUAACGUCUCUU (ssRNA) [Ic_S1_P4E.1_K4.1_C4.1_H4.1_A4.1_[T7A]_F4.1_[T8C]_[A9G]_T4.1] | 42.3
UCUCUUUGUAUUCCUUCUCUU (ssRNA) [Ic_S1_P4E.1_K4.1_C4.1_H4.1_A4.1_[A6T]_[T7C]_F4.1_[T8C]_[A9T]_T4.1] | 114
UCUCUUUGUAUUCCAUCUCUU (ssRNA) [Ic_S1_P4E.1_K4.1_C4.1_H4.1_A4.1_[A6T]_[T7C]_F4.1_[T8C]_T4.1] | 454
UCUCUUUGUAUUAGUUCUCUU (ssRNA) [Ic_S1_P4E.1_K4.1_C4.1_H4.1_A4.1_[A6T]_[T7A]_F4.1_[T8G]_[A9T]_T4.1] | 431
UCUCUUUGUAUACGCUCUCUU (ssRNA) [Ic_S1_P4E.1_K4.1_C4.1_H4.1_A4.1_[T7C]_F4.1_[T8G]_[A9C]_T4.1] | 367
UCUCUUUGUAUCUUAGUCUCUU (ssRNA) [Ic_S1_P5E.1_K5.1_C5.1_H5.1_A5.1_[T6C]_[A7T]_F5.1_[T9A]_[A10G]_T5.1] | 3.71
UCUCUUUGUACAUGUCUCUU (ssRNA) [Ic_S1_P3E.1_K3.1_C3.1_H3.1_A3.1_[T5C]_F3.1_[A8G]_T3.1] | 21.8
UCUCUUUGUAUUCUUUCUCUU (ssRNA) [Ic_S1_P4E.1_K4.1_C4.1_H4.1_A4.1_[A6T]_[T7C]_F4.1_[A9T]_T4.1] | 27.1
UCUCUUUGUAAUGCAUUCUCUU (ssRNA) [Ic_S1_P5E.1_K5.1_C5.1_H5.1_A5.1_[T5A]_[A7G]_F5.1_[T8C]_[T9A]_[A10T]_T5.1] | 910
UCUCUUUGUACGCAUGUCUCUU (ssRNA) [Ic_S1_P5E.1_K5.1_C5.1_H5.1_A5.1_[T5C]_[T6G]_[A7C]_F5.1_[T8A]_[A10G]_T5.1] | 581
UCUCUUUGUACAUCUCUCUU (ssRNA) [Ib_S1_P3E.1_K3.1_C3.1_H3.1_A3.1_[T5C]_F3.1_[A8C]_T3.1] | 15.9
UCUCUUUGUAUAAACUCUCUU (ssRNA) [Ic_S1_P4E.1_K4.1_C4.1_H4.1_A4.1_[T7A]_F4.1_[T8A]_[A9C]_T4.1] | 70
UCUCUUUGUAACCGCCUCUCUU (ssRNA) [Ic_S1_P5E.1_K5.1_C5.1_H5.1_A5.1_[T5A]_[T6C]_[A7C]_F5.1_[T8G]_[T9C]_[A10C]_T5.1] | 2070
UCUCUUUGUAUAUUAUCUCUU (ssRNA) [Ic_S1_P4E.1_K4.1_C4.1_H4.1_A4.1_F4.1_T4.1] | 0.576
UCUCUUUGUAAAUCUCUCUU (ssRNA) [Ic_S1_P3E.1_K3.1_C3.1_H3.1_A3.1_[T5A]_F3.1_[A8C]_T3.1] | 343
UCUCUUUGUAUUAUGUCUCUU (ssRNA) [Ic_S1_P4E.1_K4.1_C4.1_H4.1_A4.1_[A6T]_[T7A]_F4.1_[A9G]_T4.1] | 10.8
UCUCUUUGUAUUUAGUCUCUU (ssRNA) [Ic_S1_P4E.1_K4.1_C4.1_H4.1_A4.1_[A6T]_F4.1_[T8A]_[A9G]_T4.1] | 25.3
